Experimental data from US20240084003A1 (SIMCERE ZAIMING PHARMACEUTICAL, published 2024).
Where a chain is given by its changes, count along the chain named.

B1: F1.17.1 (antibody, human IgG1, kappa, V domains shown)
VH: QVQLKESGPGLVAPSQSLSITCTVSGFSLSRYTVHWVRQPPGKGLEWLGMIWGGGSTDYNSALKSRLSISKDNSKSQVFLKMNSLQTDDTAMYYCARPHDFDAGGFAYWGQGTLVTVSA
VL: QIVLTQSPAILSTSPGEKVTMTCSASSRVNYMYWYQQKPGSSPRLLIYDTSNLASGVPVRFSGSGSGTSYSLTISRMEAEDAATYYCQQWTSYPLTFGAGTKLELKR
notes: Human-murine chimeric IgG1, kappa
B2: F1.257.3 (antibody, human IgG1, kappa, V domains shown)
VH: QVQLQQSGPELARPGASVKLSCKASGYTFTSYGISWVKQRTGQDLEWIGEIYPKLGTTYYNEKFKDKATLTTDRSSSTAYMALRSLTSEDSAVYFCACPHYYATRGGDYWGQGTTLTVSS
VL: EIVLTQSPATLSVTPGDSVTFSCRASQSISNHLHWYQQKSHESPRLLIRYASQSISGIPSRFSGSGSGTDFTLSLSSVETEDFGVYFCQQSHSWPYTFGGGTKLEIAR
notes: as for B1
B3: F2.180.16 (antibody, human IgG1, lambda, V domains shown)
VH: EVKLVESGGGLVLPGGSLKISCAASGFTFSDYYMYWIRQTPDKRLEWVAYISNTGYSTFYPDSVKGRFTVSRDNAKNTLYLQMSRLQSEDTAMYYCARHGILYAMDYWGQGTSVTVSS
VL: QPVLTQSSSASFSLGASAKLTCTLSSQYSTYTIGWYQQQPLKPPKYVMELKHDGSRHTGDGIPDRFSGSSSGADRYLSISNIQPEDEATYICGVGDTIKEQFMYVFGGGTKVTVLG
notes: Human-murine chimeric IgG1, lambda
B4: F1.224.1 (antibody, human IgG1, kappa, V domains shown)
VH: EVLLHQSGPELVKPGASVKISCKASGYTFTDFNMDWVRQRHGQSLEWIGDVNPNNGGTIYNQKFKGKATLTVDKSSSTVYMDLRSLTSDDTAVYYCVRLGTSDYGEAWFISWGQGTVVTVSA
VL: DIVLTQSPASLAVSLGQRATISCRASQSVSTPRYSFMHWYQQKPGQPPKLLIKYASNLESGFPARFTGSGSGTDFTLNIHPVEEEDTAAYYCQQSWAIPWTFGGGTKLEIKR
notes: as for B1
B5: F1.216.2 (antibody, human IgG1, kappa, V domains shown)
VH: QVQLQQSGPEVVRPGASVKISCKASGYAFSSSWMNWMKQRPGKALEWIGRIYPGDGDTNYSGEFKVKATLTADKSSSTAYMQLSSLTSEDSAVYFCAREGSYYSNPWYFDYWGQGTTLTVSS
VL: DVLVTQTPLSLPVSLGDQASISCRSSQSIVQSNGDTYLEWYLQKPGQSPKLLIYKVSNRFSGVPDRFSGSGSGTDFTLKISRVEAEDLGVYYCFQGSHVPFTFGSGTKLEIKR
notes: as for B1
B6: HA22-hIgG1 (antibody, V domains shown)
VH: EVQLVESGGGLVKPGGSLKLSCAASGFAFSIYDMSWVRQTPEKCLEWVAYISSGGGTTYYPDTVKGRFTISRDNAKNTLYLQMSSLKSEDTAMYYCARHSGYGTHWGVLFAYWGQGTLVTVSA
VL: DIQMTQTTSSLSASLGDRVTISCRASQDISNYLNWYQQKPDGTVKLLIYYTSILHSGVPSRFSGSGSGTDYSLTISNLEQEDFATYFCQQGNTLPWTFGCGTKLEIKR
B7: F1.120.15 (antibody, human IgG1, kappa, V domains shown)
VH: QVQLQQSGPELVKPGASVKISCKASGNAFSNSWMNWVKQRPGKGLEWIGRVYSEDGDTQYNGKFRDKATLTADRSTSTAYMQLSSLTSEDSAVYFCARWLIYYGTYGAMDYWGQGTSVTVSS
VL: B6 VL with S30N, Q37H, Y50F, I53R, L54P, H55Y, F83I, C100G
notes: as for B1
B8: F1.280.1 (antibody, human IgG1, kappa, V domains shown)
VH: QIQLVQSGPELKKPGETVKISCKASGYTFTTYGMSWVKQTPGKGLTWMGWINTDSGVPTYADDFKRRFAFSLEASATTAYLQINNLKNEDTATYFCARGGPDYWGQGTTLTVSS
VL: DILLTQSPATLSVTPGETVSLSCRASQSIYKNLHWYHQKSHRSPRLLIKYASDSISGIPSRFTGSGSGTNFTLSINSVKPEDEGIYYCLQGYIVPLTFGAGTKLELKR
notes: as for B1
B9: F1.105.11 (antibody, human IgG1, kappa, V domains shown)
VH: EVQLQQSGPVLVKPGASVKMSCKASGYTFSDYFMNWVKQSHGKSLEWIGIINSYSGGTSYNQKFKGKATLTVDKSSSTAYMELNSLTSEDSAVYYCARWMDYWGQGTSVTVSS
VL: DVQITQSPSYLAASPGETITINCRTSESISKHLAWYQEKPGKTNKLLIYSGSTLQSGIPSRFSGSGSGTDFTLTISSLEPEDFAMYYCQQHNEYPWTFGGGTKLEIKR
notes: as for B1
B10: F1.200.11 (antibody, human IgG1, kappa, V domains shown)
VH: QNQLVQSGPELKKPGETVKISCKASGYTFTTAGMQWVQKMPGKGFKWIGWINTLSGEPKYAEDFKGRFAFSLETSATTAYLQISNLKNEDTATYFCARAYYSNLYWYFDVWGTGTTVTVSS
VL: DIVMTQSQKFMSTTVGDRVTITCKASQNVVTAVAWYQQKPGQSPKVLIYSASNRYSGVPDRFTGSGSGTDFTLTISNMHSEDLANYFCHQYSSYPFTFGSGTKLEIKR
notes: as for B1

Key:
[1] = molecular target: T1, human CD22-ECD-His protein (human, UniProt P20273 20-687); experiment: ELISA, Ab 10.00 nM
T1 construct: Made in house in HEK293E; also called hCD22-ECD-His; recombinant human CD22-ECD His protein; not shown: His tag
T1 sequence: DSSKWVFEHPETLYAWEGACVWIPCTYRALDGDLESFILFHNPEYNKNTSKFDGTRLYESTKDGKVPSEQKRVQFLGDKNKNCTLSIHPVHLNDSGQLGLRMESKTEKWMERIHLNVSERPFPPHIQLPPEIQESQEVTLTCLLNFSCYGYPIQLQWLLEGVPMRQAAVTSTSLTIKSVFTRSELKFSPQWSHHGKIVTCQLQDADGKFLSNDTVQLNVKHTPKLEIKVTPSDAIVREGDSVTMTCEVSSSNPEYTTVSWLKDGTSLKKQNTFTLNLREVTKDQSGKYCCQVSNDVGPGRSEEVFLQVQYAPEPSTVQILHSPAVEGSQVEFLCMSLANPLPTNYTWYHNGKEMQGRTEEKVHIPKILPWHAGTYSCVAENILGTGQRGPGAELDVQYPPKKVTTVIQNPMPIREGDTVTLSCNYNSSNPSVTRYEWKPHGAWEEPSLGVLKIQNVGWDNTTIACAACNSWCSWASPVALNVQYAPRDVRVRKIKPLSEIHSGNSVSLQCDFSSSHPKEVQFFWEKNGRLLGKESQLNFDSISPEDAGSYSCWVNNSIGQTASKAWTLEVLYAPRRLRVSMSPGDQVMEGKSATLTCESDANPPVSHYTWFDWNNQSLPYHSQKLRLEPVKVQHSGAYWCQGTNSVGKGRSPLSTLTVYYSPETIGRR
Summary of the method: (§1)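 TMB colour read-out, stopped with 1.0 N HCl after 30 min at room temperature, measures binding of CD22 human-murine chimeric antibodies to plate-coated CD22-ECD-His (2 μg/mL, overnight 4 °C). Antibody and HRP secondary steps each ran 2 h at 37 °C.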

[2] = molecular target: T1, human CD22-ECD-His protein; experiment: ELISA, Ab 100.00 nM
Summary of the method: as §1

[3] = molecular target: T1, human CD22-ECD-His protein; experiment: ELISA, human CD22-ECD-His coated
Summary of the method: as §1

[4] = molecular target: T2, monkey CD22 protein (ACROBiosystems, SI2-R52Ha) (monkey (rhesus monkey in paragraph 148), UniProt H9G1X2 18-686); experiment: ELISA, monkey CD22-ECD-His coated
T2 construct: extracellular domain; also called monkey CD22-ECD; monkey CD22-ECD-His
T2 sequence: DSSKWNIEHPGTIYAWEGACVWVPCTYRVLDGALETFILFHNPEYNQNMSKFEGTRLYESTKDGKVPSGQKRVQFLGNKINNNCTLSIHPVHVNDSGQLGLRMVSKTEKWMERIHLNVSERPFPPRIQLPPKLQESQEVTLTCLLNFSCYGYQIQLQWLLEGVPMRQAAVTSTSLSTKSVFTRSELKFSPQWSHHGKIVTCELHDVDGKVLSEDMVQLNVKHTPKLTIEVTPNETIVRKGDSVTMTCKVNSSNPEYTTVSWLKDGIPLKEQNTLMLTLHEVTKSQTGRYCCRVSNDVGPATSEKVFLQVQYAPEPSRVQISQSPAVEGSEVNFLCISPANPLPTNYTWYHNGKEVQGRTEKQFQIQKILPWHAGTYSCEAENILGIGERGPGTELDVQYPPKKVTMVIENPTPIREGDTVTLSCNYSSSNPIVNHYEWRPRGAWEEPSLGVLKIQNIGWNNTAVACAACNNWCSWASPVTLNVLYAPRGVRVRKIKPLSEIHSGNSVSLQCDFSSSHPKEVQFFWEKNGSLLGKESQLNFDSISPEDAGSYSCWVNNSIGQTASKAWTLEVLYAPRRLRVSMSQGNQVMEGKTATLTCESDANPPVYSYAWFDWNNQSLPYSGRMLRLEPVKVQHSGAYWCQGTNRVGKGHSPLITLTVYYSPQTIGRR
Description: In order to detect the binding activity of CD22 human-murine chimeric antibodies to CD22 protein, the purified human CD22-ECD-His protein obtained in Example 2 was diluted with PBS to a final concentration of 2 μg/mL, and then added to 96-well ELISA plate at 100 μl/well. The plate was sealed with plastic film and incubated overnight at 4° C., the plate was washed 2 times with PBS the next day, and then a blocking solution [PBS+2% (w/w) BSA] was added for blocking at room temperature for 2 hours. […] After incubation at 37° C. for 2 hours, the plate was washed 3 times with PBS. HRP (horseradish peroxidase)-labeled secondary antibody (purchased from Sigma, catalog number: A0170) was added, and incubated at 37° C. for 2 hours, and the plate was washed 5 times with PBS. TMB substrate was added at 50 μl/well, and incubated at room temperature for 30 minutes, then a stop solution (1.0 N HCl) was added at 50 μl/well.
In order to detect the species cross-binding activity of the chimeric antibodies, an ELISA plate was coated with commercial murine CD22 protein (ACROBiosystems, catalog number: SI2-M52Ha) and monkey CD22 protein (ACROBiosystems, catalog number: SI2-R52Ha), respectively, and the ELISA detection was performed according to the method in Example 5.1.

human CD22 domain1-4-His = molecular target: T3, human CD22 domain1-4-His (human, UniProt P20273 20-425); experiment: ELISA, human CD22 domain1-4-His coated
T3 construct: also called hCD22 domain1-4-His; not shown: His tag
T3 sequence: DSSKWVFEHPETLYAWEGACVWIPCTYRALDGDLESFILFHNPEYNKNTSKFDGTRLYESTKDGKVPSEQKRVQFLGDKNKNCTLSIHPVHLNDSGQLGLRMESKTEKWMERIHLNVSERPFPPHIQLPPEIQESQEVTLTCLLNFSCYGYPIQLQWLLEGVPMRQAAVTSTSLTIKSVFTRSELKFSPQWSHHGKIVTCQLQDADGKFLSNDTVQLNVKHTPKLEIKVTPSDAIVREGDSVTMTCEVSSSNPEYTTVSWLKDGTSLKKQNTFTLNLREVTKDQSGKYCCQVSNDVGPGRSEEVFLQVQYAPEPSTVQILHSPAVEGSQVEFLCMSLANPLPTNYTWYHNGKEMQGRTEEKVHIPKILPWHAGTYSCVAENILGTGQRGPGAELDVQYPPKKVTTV

Row | Binder | OD450 [1] | OD450 [2] | EC50 (read off the curve) [3] | EC50 (read off the curve) [4] | EC50 (read off the curve) (human CD22 domain1-4-His) | binding result [4] | binding result (human CD22 domain1-4-His)
1 | B1 | 2.21 OD450 | 2.86 OD450 | ~0.03 nM | ~0.02 nM | ~0.1 nM |  | 
2 | B2 | 2.64 OD450 | 2.83 OD450 | ~0.06 nM |  | ~0.3 nM |  | 
3 | B3 | 2.08 OD450 | 2.61 OD450 |  |  |  | no binding (tested: 100 nM) | no binding (tested: 100 nM)
4 | B4 | 2.43 OD450 | 3.12 OD450 | ~0.02 nM | ~0.04 nM | ~0.03 nM |  | 
5 | B5 | 2.53 OD450 | 2.69 OD450 | ~0.006 nM | ~0.01 nM | ~0.02 nM |  | 
6 | B6 | 2.61 OD450 | 2.65 OD450 | ~0.02 nM | ~0.05 nM | ~0.06 nM |  | 
7 | B7 | 2.61 OD450 | 2.89 OD450 | ~0.02 nM | ~0.2 nM | ~0.2 nM |  | 
8 | B8 | 2.3 OD450 | 2.46 OD450 | ~0.02 nM |  | ~0.05 nM |  | 
9 | B9 | 2.68 OD450 | 2.79 OD450 | ~0.04 nM | ~0.1 nM |  |  | no binding (tested: 100 nM)
10 | B10 | 2.33 OD450 | 2.34 OD450 | ~0.03 nM | ~1 nM |  |  | no binding (tested: 100 nM)
